In patent US20240409645A1 (DUALYX, published 2024):
Where a chain is given by its changes, count along the chain named.

T1: human IL-2Rβ (human, UniProt P14784 27-240, limits assumed)
T1 construct: recombinant protein, coated or immobilised; also called hu IL-2R; IL-2R beta
T1 sequence: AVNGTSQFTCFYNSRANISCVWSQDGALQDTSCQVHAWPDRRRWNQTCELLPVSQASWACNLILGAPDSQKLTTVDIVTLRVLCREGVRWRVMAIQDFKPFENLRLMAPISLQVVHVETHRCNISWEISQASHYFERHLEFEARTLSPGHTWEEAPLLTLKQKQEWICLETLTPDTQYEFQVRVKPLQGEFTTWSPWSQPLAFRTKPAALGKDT

B1: FJ1427_P035MP02D04 (VHH)
VHH: QVQLVESGGGLVQTGGSLRLSCAVSGSRFISDVMGWYRQVPGKQRELVADMADGGSAKYADSVKGRFSILRDSVKNTVYLQMSSLKPEDTGIYYCKAGLWIAGRHSDYWGQGTQVTVSS
notes: soluble VHH in periplasmic extract; also called clone nr
B2: FJ1427_P035MP02G04 (VHH)
VHH: QVQLVESGGGLVQAGGSLRLSCAASGSQFINDVMGWYRQVPGKQRELVADMDDTGSTKYADSVKGRFTILRDSVKNTAYLQMSNLKPEDTGVYYCKAGLWIKGRHFDYWGQGTQVTVSS
notes: as for B1
B3: FJ1427_P035MP02F01 (VHH)
VHH: B1 VHH with Q1E
notes: as for B1
B4: FJ1427_P035MP02F05 (VHH)
VHH: B1 VHH with Q1E
notes: as for B1
B5: FJ1427 P035MP03A12 (VHH)
VHH: EVQLVESGGGLVQAGGSLRLSCAASGRTFSINAMGWFRQAPGKEREFVAAISRSGGSTVYVDGVKGRFTISRDNAKNTVYLQMNSLEPEDTAVYYCAATMAVGWTTRWRTADFDSWGQGTQVTVSS
notes: soluble VHH in periplasmic extract; also called 21-MP03A12; clone nr
B6: FJ1427_P035MP02C07 (VHH)
VHH: B5 VHH with E1Q, A33T, G56D, G63S, S85T, E87K, A98T, M100V, R109S, A111I
notes: as for B1
B7: FJ1427 P035MP02H05 (VHH)
VHH: EVQLVESGGGSVQTGGSLRLSCVVSGSHFISDVMGWYRQVPGKQRELVADMADGGSAKYGDSVKGRFTILRDSVKNTVTLQMSSLNPEDTGVYYCKAGLWITGRHSDYWGQGTQVTVTS
notes: as for B1
B8: FJ1427_P035MP02A05 (VHH)
VHH: B2 VHH with Q1E, A14T, F106S
notes: as for B1
B9: FJ1427_P035MP02D06 (VHH)
VHH: B2 VHH with Q1E, A14T, F106S
notes: soluble VHH in periplasmic extract; also called clone nr; 140
B10: FJ1427 P035MP02A07 (VHH)
VHH: QVQLVESGGGLVQAGGSLRLSCAVSGDVFVRYTMAWFRQAPGKEREFVATVTDSGRTTEYVDSVKGRFTVSRDNAKNTVYLQMNNLKPEDTAVYYCAANTDYFRIRSLDANTWGQGTQVTVSS
notes: as for B1
B11: FJ1427_P035MP02C10 (VHH)
VHH: B10 VHH with S21A, V24L, T50S, E59D, D62A, K65Q, A75N, N85S, R104Q, A110R
notes: as for B1
B12: FJ1427 P035MP02F02 (VHH)
VHH: EVQLVESGGGLVQAGGSLRLACALSGDVFVRYTMAWFRQAPGKEREFVASVTDSGRTTDYVASVQGRFTVSRDNNKNTVYLQMNSLKPEDTAVYYCAANTDYFQIRSLDRNTWGQGTQVTVSS
notes: soluble VHH in periplasmic extract; also called clone nr; 110
B13: FJ1427_P035MP02F10 (VHH)
VHH: B10 VHH with Q1E, A23V, T50V, R104Q, L108V, A110N, T112A
notes: as for B1
B14: FJ1427_P035MP02A08 (VHH)
VHH: B10 VHH with Q1E, A23T
notes: as for B1
B15: FJ1427_P035MP02E08 (VHH)
VHH: B10 VHH with Q1E, A23V, T50V, R104Q, L108V, A110N, T112A
notes: as for B1
B16: FJ1427 P035MP02D09 (VHH)
VHH: B12 VHH with E1Q
notes: as for B1
B17: FJ1427_P035MP02G09 (VHH)
VHH: B10 VHH with A23T, T50L
notes: as for B1
B18: FJ1427 P035MP02D08 (VHH)
VHH: B10 VHH with Q1E, A23V, A49T, T50S, V51I
notes: as for B1
B19: FJ1427_P035MP02F09 (VHH)
VHH: B10 VHH with Q1E, V24A, T50S, E59D, R104Q, D109E, A110F
notes: as for B1
B20: FJ1427 P035MP02G08 (VHH)
VHH: B10 VHH with A23T, T50S, D62H, K65R
notes: as for B1
B21: FJ1427 P035MP02H10 (VHH)
VHH: B12 VHH with A21S, L24A, A62D, Q65K, N75A, S85N, R106K
notes: as for B1
B22: FJ1427_P035MP02E01 (VHH)
VHH: EVQLVESGGGLVQIGGSLRLSCAASGRTFSSITMAYFRQVPGKEREWVAGINFSGTRTFYADSVKGRFLISRDDAKSTMYLQMNSLKPEDTAVYYCAASPRGFYGPGNALYDYWGQGTQVTVSS
notes: as for B1
B23: FJ1427_P035MP02E05 (VHH)
VHH: B22 VHH with R45H
notes: as for B1
B24: FJ1427_P035MP02B03 (VHH)
VHH: QVQLVESGGGLVQTGGSLRLSCAASGSRFVSDFMGWYRQVPGKQRELVADMADGGSARYGDSVKGRFTILRDSGNSTAYLQMSSLKPEDTGVYYCKAGLWIAGRHFDYWGQGTQVTVSS
notes: as for B1
B25: FJ1427_P035MP02F06 (VHH)
VHH: B24 VHH with Q1E, V30I, D72E, S76A
notes: as for B1
B26: FJ1427_P035MP02C02 (VHH)
VHH: B24 VHH with T14P, S73N, G74M, Y79F
notes: as for B1
B27: FJ1427_P035MP02B08 (VHH)
VHH: EVQLVESGGGLVQAGGSLRLSCAASGRAIENYPVGWFRQAPGKEREFVAAITWISGSTLYADSVKGRFTISRDNAKNTVYLQMSSLKPEDTALYYCAAALKTITRGQNDYSYWGQGTQVTVSS
notes: soluble VHH in periplasmic extract; also called 16-MP02B08; clone nr
B28: FJ1427_P035MP02B10 (VHH)
VHH: QVQLVESGGGLVEAGGSLRLSCAASGRAFNNFPMGWFRQAPGKEREFVAAITWISGSTLYADSVKGRFTISRDKSKNTVYLQMSGLKPEDTALYYCAAALKTITRGQHDYTYWGQGTQVTVSS
notes: soluble VHH in periplasmic extract; also called clone nr; 170
B29: FJ1427 P035MP02H09 (VHH)
VHH: B27 VHH with E1Q, V2L, A14P, S25A, Q39R
notes: as for B1
B30: FJ1427_P035MP02E10 (VHH)
VHH: B27 VHH with E1Q, S25A, Q39R
notes: as for B1
B31: FJ1427 P035MP02B07 (VHH)
VHH: B28 VHH with Q1E
notes: as for B1

What was measured:
[1] = biological target: T1, human IL-2Rβ; assay: P.E. ELISA, coated protein
Experimental: In a binding ELISA, human or mouse IL-2Rα, IL-2Rβ and IL-2Rγ proteins were coated directly on maxisorp microtiter plates overnight at 4° C. Free binding sites were blocked using 4% Marvel in PBS for 1 hour. Next, 1:5 dilution of P.E. in 1% Marvel/PBS were added to wells and incubated for 1 hour. […] Binding specificity was determined based on O.D. at 450 nm values compared to negative controls.

[2] = biological target: T1, human IL-2Rβ; assay: SPR, P.E. off-rate
Experimental: SPR was performed to determine dissociation rates using Biacore 3000 instrument (GE Healthcare). Briefly, human and mouse IL-2R proteins were immobilized on carboxylmethyl dextran sensor chip (CM5) at approximately 2500 RUs using amine coupling in acetate buffer (GE Healthcare). The VHH-containing P.E. were loaded with a flow rate of 30 uL/min and the off-rates were measured over a 120s period.

Row | Binder | P.E. binding ELISA OD [1] [OD450 nm] | koff [2] [s⁻¹]
1 | B1 | 0.447 | 0.000358
2 | B2 | 0.549 | 0.000295
3 | B3 | 0.469 | 0.0003
4 | B4 | 0.206 | 0.000334
5 | B5 | 0.146 | 0.00628
6 | B6 | 0.731 | 0.00231
7 | B7 | 0.192 | 0.000268
8 | B8 | 0.263 | 0.000444
9 | B9 | 0.298 | 0.000374
10 | B10 | 0.791 | 0.00211
11 | B11 | 1.29 | 0.000521
12 | B12 | 0.684 | 0.000617
13 | B13 | 0.595 | 0.000788
14 | B14 | 1.79 | 0.00198
15 | B15 | 0.45 | 0.000846
16 | B16 | 1.47 | 0.000498

Row | Binder | P.E. binding ELISA OD [1] [OD450 nm] | koff [2] [s⁻¹]
17 | B17 | 0.527 | 0.0011
18 | B18 | 0.905 | 0.00236
19 | B19 | 1.47 | 0.00107
20 | B20 | 0.441 | 0.00178
21 | B21 | 0.435 | 0.000757
22 | B22 | 1.11 | 4.5e-05
23 | B23 | 0.856 | 0.00031
24 | B24 | 0.383 | 0.000215
25 | B25 | 0.214 | 0.000203
26 | B26 | 0.401 | 0.00057
27 | B27 | 1.38 | 0.000141
28 | B28 | 0.476 | 0.000284
29 | B29 | 1.51 | 0.000141
30 | B30 | 1.39 | 0.000615
31 | B31 | 0.38 | 0.000336
